In publication PMC3269379, “The Host-Pathogen interaction of human cyclophilin A and HIV-1 Vpr requires specific N-terminal and novel C-terminal domains” (BMC Structural Biology, 2011) one finds Kd, koff and kon data, which are given here for 3 substances.

Like-named read-outs stand apart in the source and are kept apart here.

For this experiment, the target named is human cyclophilin A (human) (UniProt P62937). Put plainly: SPR. Background: SPR reads the build-up and loss of mass on a sensor chip optically.
Sequence of human cyclophilin A (human) (P62937 whole entry): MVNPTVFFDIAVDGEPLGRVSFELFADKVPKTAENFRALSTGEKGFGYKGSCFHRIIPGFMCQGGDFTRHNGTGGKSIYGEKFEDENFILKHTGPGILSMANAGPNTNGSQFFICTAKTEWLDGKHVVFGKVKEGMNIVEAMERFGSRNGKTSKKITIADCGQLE

Sequence of HIV-1 capsid (CA) (O93182 133-363): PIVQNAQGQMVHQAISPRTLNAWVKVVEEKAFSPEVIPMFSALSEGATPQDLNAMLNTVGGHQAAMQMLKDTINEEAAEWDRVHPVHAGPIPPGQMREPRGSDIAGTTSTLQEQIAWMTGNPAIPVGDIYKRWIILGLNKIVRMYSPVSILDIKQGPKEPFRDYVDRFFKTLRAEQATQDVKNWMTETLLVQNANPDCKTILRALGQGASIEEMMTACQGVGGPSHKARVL

With “Vpr^75-90 (R76Q, V83I, R80A, T84I) (peptide)”, the Kd (commonly the free concentration of one partner at which half of the binding sites on the other are occupied at equilibrium, for simple one-to-one binding) was 2.7 µM; the koff (in general, the rate constant with which the complex falls apart) came out at 0.095 s⁻¹; the kon – broadly, the second-order rate constant of association – came to 42000 M⁻¹ s⁻¹.

In the case of HIV-1 capsid (CA) (from UniProt O93182), the Kd (cited from earlier work) is 16 µM.

On to Vpr^75-90 (R76Q, V83I, T84I) (peptide), for which the Kd stood at 4.7 µM, the koff stood at 0.071 s⁻¹ and the kon is 16000 M⁻¹ s⁻¹.
